Columns and labels:
[1] = Thermal stability by circular dichroism (CD) of MBPs and MBP-cpGFP sensors; type: physicochemical; conditions: CD signal vs temperature
Protocol: Thermal stability of PfMBP171-cpGFP.L2FE was measured using circular-dichroism (CD) and compared to the original EcMBP and PfMBP binding proteins, along with cpGFP. Following the changes by means of CD allowed determination of whether different transitions happened in alpha, beta, or both kinds of structures.
Given that cpGFP is a beta barrel, strong transitions in the beta signal alone were associated with changes in this kind of structure. In the same way, transitions in both kinds of signals were associated with the binding protein structure. […] Also, the addition of maltose to EcMBP stabilized the protein by about 10° C.

[2] = Fluorescence response and titration of soluble EcYbeJ253-cpGFP sensors with glutamate; type: binding; conditions: soluble protein; read-out: Kd (affinity) for glutamate
Protocol: Several thousand variants were screened in semi-high-throughput fashion, measuring fluorescence intensity of clarified cell lysate in the absence and presence of 10 mM glutamate.

| Kd [2] | Molecule | denaturation temperature / Tm of binding protein (component) [1] |
| --- | --- | --- |
| – | PfMBP: Pyrococcus furiosus maltotriose binding protein; SEQ ID NO:106 (protein, listed as Pyrococcus furiosus) MRRATYAFALLAILVLGVVASGCIGGGTTTPTQTSPATQPTTTQTPTQTETQAVECGSGKVVIWHAMQPNELEVFQSLAEEYMALCPEVEIVFEQKPNLEDALKAAIPTGQGPDLFIWAHDWIGKFAEAGLLEPIDEYVTEDLLNEFAPMAQDAMQYKGHYYALPFAAETVAIIYNKEMVSEPPKTFDEMKAIMEKYYDPANEKYGIAWPINAYFISAIAQAFGGYYFDDKTEQPGLDKPETIEGFKFFFTEIWPYMAPTGDYNTQQSIFLEGRAPMMVNGPWSINDVKKAGINFGVVPLPPIIKDGKEYWPRPYGGVKLIYFAAGIKNKDAAWKFAKWLTTSEESIKTLALELGYIPVLTKVLDDPEIKNDPVIYGFGQAVQHAYLMPKSPKMSAVWGGVDGAINEILQDPQNADIEGILKKYQQEILNNMQG | ≥ 80 °C |
| ~1000 nM | wild-type YbeJ: E. coli glutamate-binding protein; SEQ ID NO:107 (protein, listed as Escherichia coli) MNAKIIASLAFTSMFSLSTLLNPAYAEEQEKALNFGIISTESQQNLKPQWTPFLQDMEKKLGVKVNAFFAPDYAGIIQGMRFNKVDIAWYGNLSAMEAVDRANGQVFAQTVAADGSPGYWSVLIVNKDSPINNLNDLLAKRKDLTFGNGDPNSTSGFLVPGYYVFAKNNISASDFKRTVNAGHETNALAVANKQVDVATNNTENLDKLKTSAPEKLKELKVIWKSPLIPGDPIVWRKNLSETTKDKIYDFFMNYGKTPEEKAVLERLGWAPFRASSDLQLVPIRQLALFKEMQSVKDNKGLNEQDKLAKTTAIQAQLDDLDRLNNALSAMSSVSKAVQ | – |
